Results published in patent publication US20030194403A1.

Target: soluble epidermal growth factor receptor (EGFR), purified from A431 cells (Sigma E 3641) (human) (UniProt P00533)
Experiment: ELISA, inhibition of EGF-biotin binding to immobilized EGFR (FIG. 8)

IC50: 30 nM
Substance: m225, a mouse IgG2a anti-EGFR antibody (hybridoma ATCC HB-8508)
